This note sets out measurements from the supplement of paper PMC5998384.

In data set [1] the test system is HeLa Kyoto. The data set can be described thus: solubility in G1/S (NP-40 vs SDS abundance) (log2 ratio); higher = more soluble. To be noted: cell cycle stage: G1/S.
In data set [2] the test system is HeLa Kyoto. The data set can be described thus: melting temperature (median over replicates), in situ; higher = more thermally stable.
Data set [3] deals with HeLa Kyoto. Kind of data set: solubility change mitosis vs G1/S (difference of NP-40 vs SDS log2 ratios) (log2 ratio difference); higher = more soluble in mitosis.
Data set [4] has as its system HeLa Kyoto. The data set can be described thus: thermal stability score vs G1/S (z-score of summed log2 fold changes over temperatures); higher = more thermally stable than in G1/S.
Where [5] appears, read: cell cycle stage: early G1 (4.5 h after nocodazole release).
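For melting temperature (median over replicates), in situ in this document: HeLa Kyoto cells synchronized by double thymidine or nocodazole block, proteins quantified by TMT10plex mass spectrometry, three independent biological replicates.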
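For solubility change mitosis vs G1/S (difference of NP-40 vs SDS log2 ratios) in this document: synchronized HeLa Kyoto cells (double thymidine block for G1/S, nocodazole release for mitosis), protein amounts in NP-40 versus SDS lysates quantified by mass spectrometry, three biological replicates.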
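For solubility in G1/S (NP-40 vs SDS abundance) in this document: HeLa Kyoto cells arrested at G1/S by double thymidine block, proteins quantified by TMT10plex mass spectrometry in mild NP-40 versus SDS extracts, three biological replicates.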
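For thermal stability score vs G1/S (z-score of summed log2 fold changes over temperatures) in this document: synchronized HeLa Kyoto cells, proteins quantified by TMT10plex mass spectrometry, three biological replicates, mitosis taken 0.5 h after nocodazole release, G1/S directly after double thymidine block.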

Chain of TANC2 (chain, as listed by the source): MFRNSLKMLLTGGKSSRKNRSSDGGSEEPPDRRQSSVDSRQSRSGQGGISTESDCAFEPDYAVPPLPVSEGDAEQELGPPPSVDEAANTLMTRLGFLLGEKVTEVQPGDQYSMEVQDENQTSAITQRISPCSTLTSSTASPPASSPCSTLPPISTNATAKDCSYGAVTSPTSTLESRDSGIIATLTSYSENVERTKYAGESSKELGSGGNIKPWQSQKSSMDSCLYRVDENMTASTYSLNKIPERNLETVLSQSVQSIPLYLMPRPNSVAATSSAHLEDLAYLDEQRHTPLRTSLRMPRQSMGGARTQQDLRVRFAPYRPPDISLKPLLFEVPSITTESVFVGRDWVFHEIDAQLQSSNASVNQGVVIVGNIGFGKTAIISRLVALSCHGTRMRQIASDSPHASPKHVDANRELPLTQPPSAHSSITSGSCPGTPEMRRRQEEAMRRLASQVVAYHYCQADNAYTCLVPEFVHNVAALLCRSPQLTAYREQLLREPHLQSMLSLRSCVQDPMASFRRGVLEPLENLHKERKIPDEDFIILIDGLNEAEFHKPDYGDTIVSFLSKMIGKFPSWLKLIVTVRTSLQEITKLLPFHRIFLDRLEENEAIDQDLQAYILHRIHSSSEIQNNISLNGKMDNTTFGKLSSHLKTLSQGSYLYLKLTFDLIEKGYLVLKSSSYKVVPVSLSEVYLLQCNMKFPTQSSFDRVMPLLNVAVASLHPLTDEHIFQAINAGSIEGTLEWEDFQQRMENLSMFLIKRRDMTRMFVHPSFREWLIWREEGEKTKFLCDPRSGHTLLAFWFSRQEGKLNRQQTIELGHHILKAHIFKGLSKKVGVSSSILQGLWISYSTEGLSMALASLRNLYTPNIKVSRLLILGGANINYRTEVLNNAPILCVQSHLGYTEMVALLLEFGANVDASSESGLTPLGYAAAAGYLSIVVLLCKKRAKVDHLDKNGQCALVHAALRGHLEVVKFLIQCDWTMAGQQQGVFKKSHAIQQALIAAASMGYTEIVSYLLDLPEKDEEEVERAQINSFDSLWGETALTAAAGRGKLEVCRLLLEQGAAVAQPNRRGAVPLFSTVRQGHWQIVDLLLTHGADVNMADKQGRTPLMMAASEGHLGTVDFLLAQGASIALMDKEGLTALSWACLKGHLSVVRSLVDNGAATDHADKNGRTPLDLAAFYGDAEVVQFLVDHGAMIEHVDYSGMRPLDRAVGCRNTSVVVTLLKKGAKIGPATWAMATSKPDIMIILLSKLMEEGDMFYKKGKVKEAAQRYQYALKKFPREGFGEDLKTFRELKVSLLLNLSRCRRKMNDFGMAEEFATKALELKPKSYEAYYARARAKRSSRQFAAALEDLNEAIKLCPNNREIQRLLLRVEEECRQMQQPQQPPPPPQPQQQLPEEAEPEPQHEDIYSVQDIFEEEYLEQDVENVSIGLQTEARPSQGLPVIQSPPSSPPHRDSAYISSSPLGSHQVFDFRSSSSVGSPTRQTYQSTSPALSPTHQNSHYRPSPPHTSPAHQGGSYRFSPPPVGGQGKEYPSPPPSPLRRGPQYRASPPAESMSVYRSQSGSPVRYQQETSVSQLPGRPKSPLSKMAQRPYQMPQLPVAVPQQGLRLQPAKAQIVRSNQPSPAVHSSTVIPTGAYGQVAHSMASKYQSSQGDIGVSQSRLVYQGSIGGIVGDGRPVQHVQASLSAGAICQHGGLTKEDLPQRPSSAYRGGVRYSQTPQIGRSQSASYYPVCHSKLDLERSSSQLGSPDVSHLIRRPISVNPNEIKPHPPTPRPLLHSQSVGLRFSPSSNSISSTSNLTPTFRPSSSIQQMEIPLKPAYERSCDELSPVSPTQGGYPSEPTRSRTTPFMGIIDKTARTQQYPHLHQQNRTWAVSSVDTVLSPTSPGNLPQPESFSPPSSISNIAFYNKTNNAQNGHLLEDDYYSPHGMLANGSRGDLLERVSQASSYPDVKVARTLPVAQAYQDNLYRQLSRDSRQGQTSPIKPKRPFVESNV

“MTSIIKLTTLSGVQEESALCYLLQVDEFRFLLDCGWDEHFSMDIIDSLRKHVHQIDAVLLSHPDPLHLGALPYAVGKLGLNCAIYATIPVYKMGQMFMYDLYQSRHNTEDFTLFTLDDVDAAFDKIQQLKFSQIVNLKGKGHGLSITPLPAGHMIGGTIWKIVKDGEEEIVYAVDFNHKREIHLNGCSLEMLSRPSLLITDSFNATYVQPRRKQRDEQLLTNVLETLRGDGNVLIAVDTAGRVLELAQLLDQIWRTKDAGLGVYSLALLNNVSYNVVEFSKSQVEWMSDKLMRCFEDKRNNPFQFRHLSLCHGLSDLARVPSPKVVLASQPDLECGFSRDLFIQWCQDPKNSIILTYRTTPGTLARFLIDNPSEKITEIELRKRVKLEGKELEEYLEKEKLKKEAAKKLEQSKEADIDSSDESDIEEDIDQPSAHKTKHDLMMKGEGSRKGSFFKQAKKSYPMFPAPEERIKWDEYGEIIKPEDFLVPELQATEEEKSKLESGLTNGDEPMDQDLSDVPTKCISTTESIEIKARVTYIDYEGRSDGDSIKKIINQMKPRQLIIVHGPPEASQDLAECCRAFGGKDIKVYMPKLHETVDATSETHIYQVRLKDSLVSSLQFCKAKDAELAWIDGVLDMRVSKVDTGVILEEGELKDDGEDSEMQVEAPSDSSVIAQQKAMKSLFGDDEKETGEESEIIPTLEPLPPHEVPGHQSVFMNEPRLSDFKQVLLREGIQAEFVGGVLVCNNQVAVRRTETGRIGLEGCLCQDFYRIRDLLYEQYAIV [CPSF2]”: the “solubility in G1/S (log2)” value in the data set on HeLa Kyoto [1] is -0.409. Further, the melting temperature in the data set on HeLa Kyoto [2] (cell cycle stage: G1/S) was 48.7 °C; in the data set with HeLa Kyoto [2] (cell cycle stage: mitosis), 50.3 °C. Moreover, the “solubility change mitosis (log2)” value in the data set on HeLa Kyoto [3] turned out to be 0.0805. In addition, the thermal stability score was -0.0481 in the data set on HeLa Kyoto [4] (setting [5]) and 1.62 in the data set with HeLa Kyoto [4] (cell cycle stage: mitosis).
With RALGAPB, the “solubility in G1/S (log2)” value in the data set with HeLa Kyoto [1] is -0.0337. The melting temperature in the data set with HeLa Kyoto [2] (cell cycle stage: G1/S) worked out at 50.2 °C; in the data set with HeLa Kyoto [2] (cell cycle stage: mitosis), 51 °C. In the data set with HeLa Kyoto [3], the “solubility change mitosis (log2)” value was -0.169. The thermal stability score is -1.55 in the data set on HeLa Kyoto [4] (setting [5]) and -1.73 with HeLa Kyoto [4] (cell cycle stage: mitosis).
As for “MAVQESAAQLSMTLKVQEYPTLKVPYETLNKRFRAAQKNIDRETSHVTMVVAELEKTLSGCPAVDSVVSLLDGVVEKLSVLKRKAVESIQAEDESAKLCKRRIEHLKEHSSDQPAAASVWKRKRMDRMMVEHLLRCGYYNTAVKLARQSGIEDLVNIEMFLTAKEVEESLERRETATCLAWCHDNKSRLRKMKSCLEFSLRIQEFIELIRQNKRLDAVRHARKHFSQAEGSQLDEVRQAMGMLAFPPDTHISPYKDLLDPARWRMLIQQFRYDNYRLHQLGNNSVFTLTLQAGLSAIKTPQCYKEDGSSKSPDCPVCSRSLNKLAQPLPMAHCANSRLVCKISGDVMNENNPPMMLPNGYVYGYNSLLSIRQDDKVVCPRTKEVFHFSQAEKVYIM [MAEA]”, the “solubility in G1/S (log2)” value in the data set on HeLa Kyoto [1] is -0.0777. In addition, the figures for the melting temperature with HeLa Kyoto [2] (cell cycle stage: G1/S) and in the data set on HeLa Kyoto [2] (cell cycle stage: mitosis) were 50.2 °C and 49.3 °C, respectively. In addition, the “solubility change mitosis (log2)” value in the data set on HeLa Kyoto [3] is -0.0756. For the same substance, the thermal stability score is -0.838 in the data set on HeLa Kyoto [4] (setting [5]) and -0.615 in the data set on HeLa Kyoto [4] (cell cycle stage: mitosis).
“MGALRPTLLPPSLPLLLLLMLGMGCWAREVLVPEGPLYRVAGTAVSISCNVTGYEGPAQQNFEWFLYRPEAPDTALGIVSTKDTQFSYAVFKSRVVAGEVQVQRLQGDAVVLKIARLQAQDAGIYECHTPSTDTRYLGSYSGKVELRVLPDVLQVSAAPPGPRGRQAPTSPPRMTVHEGQELALGCLARTSTQKHTHLAVSFGRSVPEAPVGRSTLQEVVGIRSDLAVEAGAPYAERLAAGELRLGKEGTDRYRMVVGGAQAGDAGTYHCTAAEWIQDPDGSWAQIAEKRAVLAHVDVQTLSSQLAVTVGPGERRIGPGEPLELLCNVSGALPPAGRHAAYSVGWEMAPAGAPGPGRLVAQLDTEGVGSLGPGYEGRHIAMEKVASRTYRLRLEAARPGDAGTYRCLAKAYVRGSGTRLREAASARSRPLPVHVREEGVVLEAVAWLAGGTVYRGETASLLCNISVRGGPPGLRLAASWWVERPEDGELSSVPAQLVGGVGQDGVAELGVRPGGGPVSVELVGPRSHRLRLHSLGPEDEGVYHCAPSAWVQHADYSWYQAGSARSGPVTVYPYMHALDTLFVPLLVGTGVALVTGATVLGTITCCFMKRLRKR [IGSF8]”: the “solubility in G1/S (log2)” value in the data set on HeLa Kyoto [1] was -0.0809. Besides, the melting temperature in the data set on HeLa Kyoto [2] (cell cycle stage: G1/S) was 56.3 °C; in the data set on HeLa Kyoto [2] (cell cycle stage: mitosis) it was 54.7 °C. The “solubility change mitosis (log2)” value in the data set with HeLa Kyoto [3] was -0.0392. The figures for the thermal stability score in the data set on HeLa Kyoto [4] (setting [5]) and in the data set with HeLa Kyoto [4] (cell cycle stage: mitosis) were -2.98 and -1.56, respectively.
With “MAATASAGVPATVSEKQEFYQLLKNLINPSCMVRRQAEEIYENIPGLCKTTFLLDAVRNRRAGYEVRQMAAALLRRLLSSGFEEVYPNLPADVQRDVKIELILAVKLETHASMRKKLCDIFAVLARNLIDEDGTNHWPEGLKFLIDSIYSKNVVLWEVALHVFWHFPGIFGTQERHDLDIIKRLLDQCIQDQEHPAIRTLSARAAAAFVLANENNIALFKDFADLLPGILQAVNDSCYQDDDSVLESLVEIADTVPKYLGPYLEDTLQLSLKLCGDSRLSNLQRQLALEVIVTLSETATPMLKKHTNIIAQAVPHILAMMVDLQDDEDWVNADEMEEDDFDSNAVAAESALDRLACGLGGKVVLPMTKEHIMQMLQSPDWKYRHAGLMALSAIGEGCHQQMESILDETVNSVLLFLQDPHPRVRAAACTTLGQMATDFAPNFQKKFHETVIAALLRTMENQGNQRVQSHAASALIIFIEDCPKSLLVLYVDSMVKNLHSVLVIKLQELIRNGTKLALEQLVTTIASVADTIEEKFVPYYDIFMPSLKHIVELAVQKELKLLRGKTIECISHIGLAVGKEKFMQDASNVMQLLLKTQSDLNNMEDDDPQTSYMVSAWARMCKILGKDFQQYLPLVIEPLIKTASAKPDVALLDTQDVENMSDDDGWQFVNLGDQQSFGIKTSGLEAKATACQMLVYYAKELREGFVEYTEQVVKLMVPLLKFYFHDNVRVAAAESMPFLLECARIRGPEYLAQMWQFICDPLIKAIGTEPDTDVLSEIMNSFAKSIEVMGDGCLNDEHLEELGGILKAKLEGHFKNQELRQVKRQEENYDQQVEMSLQDEDECDVYILTKVSDILHSLFSTYKEKILPWFEQLLPLIVNLICSSRPWPDRQWGLCIFDDIIEHCSPTSFKYVEYFRWPMLLNMRDNNPEVRQAAAYGLGVMAQFGGDDYRSLCSEAVPLLVKVIKCANSKTKKNVIATENCISAIGKILKFKPNCVNVDEVLPHWLSWLPLHEDKEEAIQTLSFLCDLIESNHPVVIGPNNSNLPKIISIIAEGKINETINYEDPCAKRLANVVRQVQTSEDLWLECVSQLDDEQQEALQELLNFA [RANBP6]”, the “solubility in G1/S (log2)” value in the data set on HeLa Kyoto [1] is -0.0197. Also, the melting temperature came out at 49.9 °C in the data set with HeLa Kyoto [2] (cell cycle stage: G1/S) and 51.5 °C in the data set on HeLa Kyoto [2] (cell cycle stage: mitosis). The “solubility change mitosis (log2)” value with HeLa Kyoto [3] is -0.132. In addition, the thermal stability score in the data set on HeLa Kyoto [4] (setting [5]) was 0.799; in the data set with HeLa Kyoto [4] (cell cycle stage: mitosis), 0.825.
TANC2: in the data set on HeLa Kyoto [1], the “solubility in G1/S (log2)” value was found to be 0.222. In the data set with HeLa Kyoto [2] (cell cycle stage: mitosis), this substance registered a melting temperature of 50.3 °C. Moreover, in the data set with HeLa Kyoto [3], the “solubility change mitosis (log2)” value was -0.0218. For the same substance, the thermal stability score in the data set on HeLa Kyoto [4] (setting [5]) was found to be 0.0704; with HeLa Kyoto [4] (cell cycle stage: mitosis), 0.122.
